Laboratory results taken from patent publication US20250179196A1 (Janssen / Centocor, published 2025).

T1: human IL-23R expressed on the cell surface of stably transfected iLite and HEK cell lines (human, UniProt Q5VWK5 24-629)
T1 construct: whole, on cells; Same receptor on two transfected cell lines; the cell line is named under assay; also called human IL-23R iLite cells; human IL-23R HEK cells
T1 sequence (looked up): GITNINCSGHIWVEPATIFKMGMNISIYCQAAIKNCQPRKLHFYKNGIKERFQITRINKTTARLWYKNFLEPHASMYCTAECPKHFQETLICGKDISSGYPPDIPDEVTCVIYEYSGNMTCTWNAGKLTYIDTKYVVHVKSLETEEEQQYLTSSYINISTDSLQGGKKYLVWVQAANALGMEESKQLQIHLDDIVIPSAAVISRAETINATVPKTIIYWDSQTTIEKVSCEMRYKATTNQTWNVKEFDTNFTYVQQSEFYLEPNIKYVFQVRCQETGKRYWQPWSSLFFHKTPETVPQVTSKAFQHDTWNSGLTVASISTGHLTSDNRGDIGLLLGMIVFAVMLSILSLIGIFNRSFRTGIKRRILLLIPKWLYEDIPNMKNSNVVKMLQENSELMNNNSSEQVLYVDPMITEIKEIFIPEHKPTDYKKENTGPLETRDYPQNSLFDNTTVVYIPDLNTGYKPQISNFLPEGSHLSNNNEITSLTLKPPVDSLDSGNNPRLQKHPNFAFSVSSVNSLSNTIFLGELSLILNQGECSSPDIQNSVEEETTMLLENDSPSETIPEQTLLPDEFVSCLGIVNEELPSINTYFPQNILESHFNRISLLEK

B1: I23RB321 (antibody, mouse IgG2a, kappa, V domains shown)
VH: QVQLVQSGAEVKKPGSSVKVSCKASGGTFSSYGISWVRQAPGQGLEWMGWISAIFGTTNYAQKFQGRVTITADESTSTAYMELSSLRSEDTAVYYCARHWLQSFDYWGQGTLVTVSS
VL: DIQMTQSPSSLSASVGDRVTITCRASQSIGGDLNWYQQKPGKAPKLLIYAASSLQSGVPSRFSGSGSGTDFTLTISSLQPEDFATYYCQQSYSTPLTFGQGTKVEIKR
notes: phage display; human V, mouse IgG2a/kappa
B2: I23RB261 (antibody, mouse IgG2a, kappa, V domains shown)
VH: QVQLVQSGAEVKKPGSSVKVSCKASGGTFSSYAISWVRQAPGQGLEWMGWISPYFGTANYAQKFQGRVTITADESTSTAYMELSSLRSEDTAVYYCARMYRQGFDYWGQGTLVTVSS
VL: DIQMTQSPSSLSASVGDRVTITCRASQSINDDLNWYQQKPGKAPKLLIYAASSLQSGVPSRFSGSGSGTDFTLTISSLQPEDFATYYCQQSYSTPLTFGQGTKVEIKR
notes: as for B1
B3: I23RB313 (antibody, mouse IgG2a, kappa, V domains shown)
VH: QVQLVQSGAEVKKPGSSVKVSCKASGGTFSSYGISWVRQAPGQGLEWMGWISAIFGTTNYAQKFQGRVTITADESTSTAYMELSSLRSEDTAVYYCARGTVPGFDYWGQGTLVTVSS
VL: DIQMTQSPSSLSASVGDRVTITCRASQSIGEDLNWYQQKPGKAPKLLIYAASSLQSGVPSRFSGSGSGTDFTLTISSLQPEDFATYYCQQSYSTPLTFGQGTKVEIKR
notes: as for B1
B4: I23RB319 (antibody, mouse IgG2a, kappa, V domains shown)
VH: QVQLVQSGAEVKKPGSSVKVSCKASGGTFSSYGISWVRQAPGQGLEWMGWISAIFGTTNYAQKFQGRVTITADESTSTAYMELSSLRSEDTALYYCARPLKQAFDYWGQGTLVTVSS
VL: DIQMTQSPSSLSASVGDRVTITCRASQSITDDLNWYQQKPGKAPKLLIYAASSLQSGVPSRFSGSGSGTDFTLTISSLQPEDFATYYCQQSYSTPLTFGQGTKVEIKR
notes: as for B1
B5: I23RB317 (antibody, mouse IgG2a, kappa, V domains shown)
VH: QVQLVQSGAEVKKPGSSVKVSCKASGGTFSSYAISWVRQAPGQGLEWMGGIIPIFGTANYAQKFQGRVTITADESTSTAYMELSSLRSEDTAVYYCARGNGVNYHSELDYWGQGTLVTVSS
VL: EIVLTQSPATLSLSPGERATLSCRASQSVDSFLAWYQQKPGQAPRLLIYTASNRATGIPARFSGSGSGTDFTLTISSLEPEDFAVYYCQQGNSAPFTFGQGTKVEIKR
notes: as for B1
B6: I23RB267 (antibody, mouse IgG2a, kappa, V domains shown)
VH: EVQLVQSGAEVKKPGESLKISCKGSGYSFTSYWIGWVRQMPGKGLEWMGIIYPGDSDTRYSPSFQGQVTISADKSISTAYLQWSSLKASDTAMYYCARVWYSSWDLDYWGQGTLVTVSS
VL: not shown
notes: as for B1
B7: I23RB264 (antibody, mouse IgG2a, kappa, V domains shown)
VH: QVQLVQSGAEVKKPGSSVKVSCKASGGTFSSYAISWVRQAPGQGLEWMGGIIPIFGTANYAQKFQGRVTITADESTSTAYMELSSLRSEDTAVYYCARRSSPGFDYWGQGTLVTVSS
VL: DIQMTQSPSSLSASVGDRVTITCRASQSIDNDLNWYQQKPGKAPKLLIYNASSLQSGVPSRFSGSGSGTDFTLTISSLQPEDFATYYCQQPYSIPLTFGQGTKVEIKR
notes: as for B1
B8: I23RB260 (antibody, mouse IgG2a, kappa, V domains shown)
VH: QVQLVQSGAEVKKPGSSVKVSCKASGGTFSSYGISWVRQAPGQGLEWMGGIIPIFGTANYAQKFQGRVTITADESTSTAYMELSSLRSEDTAVYYCARDFGWSLWFDYWGQGTLVTVSS
VL: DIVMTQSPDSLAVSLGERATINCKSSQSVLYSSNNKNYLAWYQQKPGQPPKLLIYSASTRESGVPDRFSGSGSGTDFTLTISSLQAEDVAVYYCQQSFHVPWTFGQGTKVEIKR
notes: as for B1
B9: I23RB35 (antibody, mouse IgG2a, kappa, V domains shown)
VH: DVQLQESGPGLVKPSQSLSLTCSVTGYSITSGHNWNWIRQFPGNKLEWLGYISYDGSNNYDPSLKNRISITRDTSKNQFFLKLNSVTTEDTATYYCARGGGYFGNSYRVFASWGQGTTVTVSS
VL: DIVLTQSPASLAVSLGQRATISCRASESVDSYGNSFMHWYQQKPGQPPKLLIYRASNLESEIPARFSGRGSGTDFTLTINPVEADDVATYYCQQSNADPYTFGGGTKLEIKR
notes: immunization; mouse IgG2a/kappa
B10: I23RB91 (antibody, mouse IgG2a, kappa, V domains shown)
VH: EFQLQQFGPELLKPGASVKISCKASGYTFTDYIMHWVKQSHGKSLEWIGGISPNYGGTGYNGKFKDKATLTVDKSSSTAYMELRSLTSEDSAVYYCARFNNYYYFDYWGQGTTLTVSS
VL: DIKMTQSPSSMYASLGERVTITCKASQDINSYLSWCQQKPGKSPKALIYRANSLVDGVPSRFSGSGSGQDYSLTISSLEYEDMGIYYCLQYDEFPYTFGGGTKLEMKR
notes: as for B9
B11: I23RB69 (antibody, mouse IgG2a, kappa, V domains shown)
VH: EVQLQQSGAELVKPGASVKISCKASGYSFTGYNMNWVKQSHGKSLEWIGNINPFYDKTSYNQKFKGKATLTVDKASSTAYMQLNSLTSEDSAVYYCARQLGLKGFAYWGQGTLVTVSA
VL: DIVMTQSHKFMSTSVGDRVSITCKASQDVSTAVAWYQQKPGQSPKLLIYSASYRYTGVPDRFTGSGSGTDFTFTISSVQAEDLAVYYCQQHYSTPWTFGGGTKLEMKR
notes: as for B9
B12: I23RB102 (antibody, mouse IgG2a, kappa, V domains shown)
VH: QVQLQQPGAELVKPGASVKVSCKASGYTFTKYWINWMNQRPGQGLEWIGNIYPGSISTNYNEKFKSKVTLTVDISSSTAYMQLSSLTSDDSAVYYCARGDFYALDYWGQGTTLTVSS
VL: DIQMTQSPASLSVSVGETVTITCRASENIYSHITWYQLKQGKSPQLLVYASTNLADDVPSRFSGSGSGTQYSLKINSLLSEDFGTYYCQHFWGTPWTFGGGTKLEMKR
notes: as for B9
B13: I23RB87 (antibody, mouse IgG2a, kappa, V domains shown)
VH: EFQLQQSGPELVKPGTSVKMSCKASGYTFTNYVMHWVKQKPGQGLEWIGYINPYDASPKYNEKFKGKAILTSDKSSSTAYMELSSLTSEDSAVYYCTRDAKLDYFDYWGQGTTLTVSS
VL: DIVMTQTTSSLSASLGDRVTISCRASQDISNYLNWYQQKPDGTVKLLIYYTSRLHSGVPSRFSGSGSGTDFSLTISNLEQEDIATYFCQQGITLPWTFGAGTKLELKR
notes: as for B9
B14: I23RB78 (antibody, mouse IgG2a, kappa, V domains shown)
VH: EFQLQQSGGGLVKPGGSLKLSCAASGFTFSNYTMSWVRQTPEKRLKWVACISSGGGNTYYPDSVKGRFTISRDNARNTLYLQMSSLRSEDTAMYYCARRNYRRAMDYWGQGTSVTVSS
VL: DIVMTQSPASLAVSLGQRATISCRASESVDSYGISFMHWYQQKPGQPPKLLIYRASNLESGIPARFSGSGSRTDFTLTINPVEADDVATYYCQQSNEDPWTFGAGTGLEIKR
notes: as for B9
B15: I23RB67 (antibody, mouse IgG2a, kappa, V domains shown)
VH: EVQLQQSGAELVKPGASVKLSCKASGYTFTSYWINWVKQRPGQGLEWIGNIYPGSSSTNYNEKFKSKATLTVDTSSSTAYMQLSSLTSDDSAVYYCARSAYGNRLAMDYWGQGTTLTVSS
VL: DVVMTQSHKFMSTSVGDRVSITCKASQDVSTAVAWYQQKPGQSPKLLIYSAFYRYTGVPDRFTGSGSGTDFTFTISSVQAEDLAVYYCQQHYSTPYTFGGGTKLELKR
notes: as for B9
B16: I23RB54 (antibody, mouse IgG2a, kappa, V domains shown)
VH: EVQLQQSGGGLVKPGGSLKLSCAASGFTFSSYAMSWVRQTPEKRLEWVAGISSGGSYIYYPDNVKGRFTISRDNARNTLYLQMSSLRSEDTAMYYCARKKSDYGAMDYWGQGTTLTVSS
VL: DIQMTQSPKFLLVSAGDRVTITCKASQSVSNDVAWYQQKPGQSPRLLIYYASNRYTGVPDRFTGSGYGTDFTFTISTVQAEDLAVYFCQQDYSSLPTFGAGTKLEMKR
notes: as for B9

Each binder was assayed against T1, human IL-23R expressed on the cell … (assay: flow cytometry on human IL-23R HEK cells, Expt D (8-point, 96well)).
Experimental: HEK-IL-23R cell concentration response mAb binding (8-point, 96-well assay). […] HEK-IL-23R and HEK-parental cells (12.5 μL of each, 120000 cells total) were plated in 2× replicate on 96-well V-bottom plates (Corning, Cat #3357) into 37° C. warmed Assay medium containing serially diluted IL-23R mAbs to a final volume of 150 μL. IL-23R mAbs were allowed to bind to cells for 30 minutes, at 37° C. […] Cells were next washed twice in ice-cold stain buffer, then resuspended in a final volume of 30 μL with Sytox Green viability dye (ThermoFisher, Cat #S7020). Plates were kept on ice until run for analysis on the iQue. All washes were performed by centrifugation (800 rcf, 3 minutes) followed by flick decantation to remove supernatants. Cell-binding to HEK-IL-23R cells was measured with FlowJo, by gating for single, viable cells and determining the geometric mean fluorescence intensity (MFI) for the 647 detection antibody. Geometric mean fluorescence intensities were plotted over log mAb concentrations fitted with a dose response curve with variable slope using GraphPad Prism.

Going from B1 to B2, the EC50 falls from 18.6 nM to 9.2 nM (2-fold). The second is the more potent here.

First: B3
Second: B4
The EC50 of the first is higher: over 50 nM for the first, 8.7 nM for the second.

Compared with B5, B6 is 3.3-fold lower in EC50: 31 nM for the first, 9.4 nM for the second. The second is the more potent here.

B7 and B8 cannot be ordered by EC50: over 50 nM for the first, over 50 nM for the second.

Going from B9 to B10, the EC50 rises from 0.2 nM to 30.3 nM (150-fold).

For B11, the EC50 was 0.6 nM.

The binders below were run against T1, human IL-23R expressed on the cell … (assay: flow cytometry on human IL-23R HEK cells, Expt E (11-point, 384well)).
Experimental: HEK-IL-23R cell concentration response mAb binding (11-point, 384-well assay). […] IL-23R mAbs were allowed to bind to cells for 30 minutes, at 37° C. […] Cells were next washed twice in ice-cold stain buffer, then resuspended in a final volume of 10 μL with Sytox Green viability dye (ThermoFisher, Cat #S7020). Plates were kept on ice until run for analysis on the iQue. All washes were performed by centrifugation (800 rcf, 3 minutes) followed by automated aspiration to remove supernatants with plate washers. Cell-binding to HEK-IL-23R cells was measured with FlowJo, by gating for single, viable cells and determining the geometric mean fluorescence intensity (MFI) for the 647 detection antibody. Geometric mean fluorescence intensities were plotted over log mAb concentrations fitted with a dose response curve with variable slope using GraphPad Prism.

Going from B12 to B13, the EC50 rises from 8.6 nM to over 50 nM. The first is the more potent here.

B14 and B15 are within 1.5-fold of each other in EC50: 15.8 nM for the first, 18 nM for the second.

For B16, the EC50 was 35.2 nM.

Going from B12 to B13, the “MFI (6.4 nM)” value falls from 258000 MFI to 86100 MFI.

Going from B14 to B15, the “MFI (6.4 nM)” value falls from 84200 MFI to 80900 MFI.

B16 was tested, and the “MFI (6.4 nM)” value was 63100 MFI.
